Assay results published in patent US20240010735A1 (EISAI R AND D MANAGEMENT, published 2024).

Columns and labels:
Assay in all cases: ELISA: Fc-His proteins (1 nM) captured on anti-6-His antibody, antibody A 10 µg/mL with human IgG 100 µg/mL, HRP anti-mouse IgG, OD450 as % of mouse EphA4-Fc-His
[1] = molecular target: T1, mouse EphB3 extracellular region-Fc-His protein (mouse; human, UniProt P54754 30-554)
T1 construct: extracellular domain; not shown: Fc region of human IgG1; histidine tag
T1 sequence (looked up): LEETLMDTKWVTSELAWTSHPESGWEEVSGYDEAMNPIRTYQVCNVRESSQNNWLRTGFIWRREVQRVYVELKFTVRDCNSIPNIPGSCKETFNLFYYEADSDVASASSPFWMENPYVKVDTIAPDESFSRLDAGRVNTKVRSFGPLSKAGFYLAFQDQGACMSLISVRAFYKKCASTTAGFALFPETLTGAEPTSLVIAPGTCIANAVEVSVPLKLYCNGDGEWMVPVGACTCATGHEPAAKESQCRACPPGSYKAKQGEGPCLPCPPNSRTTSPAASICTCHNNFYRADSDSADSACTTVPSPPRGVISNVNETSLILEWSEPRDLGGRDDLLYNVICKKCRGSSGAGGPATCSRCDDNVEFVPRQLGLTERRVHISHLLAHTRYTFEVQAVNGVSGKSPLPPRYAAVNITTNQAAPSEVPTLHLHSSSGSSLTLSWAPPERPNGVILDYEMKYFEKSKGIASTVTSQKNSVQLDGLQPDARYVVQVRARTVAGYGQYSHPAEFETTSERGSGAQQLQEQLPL
Experimental: (§1) Rabbit anti-6-His antibodies (Bethyl Laboratories) were coated onto the wells of a 96-well plate (Nunc). After incubating at 4° C. overnight, the wells were blocked at room temperature for 1 hour by 1% Block Ace (DS Pharma Biomedical). After washing 3 times with 0.05% Tween 20/PBS (Thermo […]), each Eph receptor of mouse extracellular region-Fc-His protein (final concentration 1 nM) was seeded into each well, and incubated at room temperature for 1 hour. After washing 3 times, human IgG solution (100 μg/mL, Sigma) and antibody A (10 μg/mL) were supplemented to the wells, and incubated at room temperature for 1 hour. Horseradish peroxidase-labeled donkey anti-mouse IgG antibody (Jackson ImmunoResearch Laboratories) was added, and incubated at room temperature for 1 hour. After washing 3 times, TMBZ (3,3′,5,5′-tetramethylbenzidine, Sigma) solution was added to the wells, and upon confirmation of modest coloring, an equal amount of quenching solution (1 N H₂SO₄, Wako Pure Chemicals) was added to the wells, and absorbance at 450 nm was read by a microplate reader (PerkinElmer).

[2] = molecular target: T2, mouse EphB4 extracellular region-Fc-His protein (mouse; human, UniProt P54761 16-539)
T2 construct: extracellular domain; not shown: Fc region of human IgG1; histidine tag
T2 sequence (looked up): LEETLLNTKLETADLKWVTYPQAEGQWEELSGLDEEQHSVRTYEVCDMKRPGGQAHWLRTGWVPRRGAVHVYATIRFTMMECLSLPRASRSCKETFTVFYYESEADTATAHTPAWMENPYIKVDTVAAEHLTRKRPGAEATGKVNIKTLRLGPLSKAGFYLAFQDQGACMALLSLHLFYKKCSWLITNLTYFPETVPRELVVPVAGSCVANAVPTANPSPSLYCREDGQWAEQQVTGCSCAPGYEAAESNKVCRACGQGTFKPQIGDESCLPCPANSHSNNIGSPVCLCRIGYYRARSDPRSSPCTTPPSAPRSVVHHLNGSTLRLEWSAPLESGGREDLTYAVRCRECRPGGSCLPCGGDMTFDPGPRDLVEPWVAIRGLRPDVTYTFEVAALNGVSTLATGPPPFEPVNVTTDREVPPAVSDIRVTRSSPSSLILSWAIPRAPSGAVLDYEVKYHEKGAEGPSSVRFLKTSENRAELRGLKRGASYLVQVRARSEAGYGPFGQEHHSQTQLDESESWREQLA
Experimental: as §1

[3] = molecular target: T3, mouse EphA8 extracellular region-Fc-His protein (mouse; human, UniProt O09127 27-541)
T3 construct: extracellular domain; not shown: Fc region of human IgG1; histidine tag
T3 sequence (looked up): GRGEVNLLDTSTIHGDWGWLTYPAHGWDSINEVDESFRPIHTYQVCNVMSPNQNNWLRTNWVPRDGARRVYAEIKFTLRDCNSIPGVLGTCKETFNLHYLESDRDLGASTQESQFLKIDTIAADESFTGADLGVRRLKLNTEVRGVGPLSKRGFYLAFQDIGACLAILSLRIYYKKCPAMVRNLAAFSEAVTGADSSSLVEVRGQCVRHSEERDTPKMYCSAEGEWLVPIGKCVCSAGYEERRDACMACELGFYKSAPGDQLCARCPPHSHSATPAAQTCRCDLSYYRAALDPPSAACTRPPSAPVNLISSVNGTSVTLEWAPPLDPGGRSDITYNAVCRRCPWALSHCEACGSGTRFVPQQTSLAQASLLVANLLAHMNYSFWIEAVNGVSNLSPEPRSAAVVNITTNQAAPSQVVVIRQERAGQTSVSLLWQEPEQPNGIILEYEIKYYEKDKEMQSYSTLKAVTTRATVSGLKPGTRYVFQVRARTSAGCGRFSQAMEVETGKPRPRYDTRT
Experimental: as §1

Measured: binding result

B1: mouse anti-EphA4 monoclonal antibody (antibody A) (antibody, mouse IgG1, kappa, V domains shown)
VH: QVQLKQSGPSLVQPSQSLSITCTVSGFSLTRYGVHWVRQSPGKGLEWLGVIWRGGSTDYNAAFMSRLSITKDNSKSQVFFKMNSLQADDTAIYYCAKESLFGVYYDYGYYSMDYWGQGTSVTVSS
VL: DIQMTQSPSSLSASLGERVSLTCRASQEISGYLSWLQQKPDGTIKRLIYAASTLDSGVPKRFSGSRSGSDYSLTISSLESEDFADYYCLQYASYPLTFGAGTKLELKR
notes: purified from hybridoma supernatant
no binding (tested: 10 µg/mL): all assays above
